Data taken from patent US20170158753A1 (INTEGRATED BIOTHERAPEUTICS, published 2017).

B1: m5E4 (antibody, V domains shown)
VH: EVQLQESGGDLVKPGGSLKLSCAASGFTFSSYTMSWVRQTPERRLEWVATITSGGTYTYYPDSVKGRFTISRDNAKNTLYLQMTSLKSEDTAMYYCTREDGYYFSYWGQGTLVTVSA
VL: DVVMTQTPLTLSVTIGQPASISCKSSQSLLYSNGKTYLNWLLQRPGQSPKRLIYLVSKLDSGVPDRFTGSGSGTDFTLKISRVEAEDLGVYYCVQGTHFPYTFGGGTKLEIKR
B2: m2E4 (antibody, V domains shown)
VH: EVQLQESGPELVKPGASVKISCKASGYSFTGYYMNWVKQSPEKSLEWIGEINPSTGGTTYNQKFKAKATLTVDKSSSTAYMQLKSLTSEDSAVYYCVRYSHYYGSGSWYFDVWGTGTTVTVSS
VL: DIQMTQSPASLSASVGETVTITCRASENIYSNLAWYQQKQGKSPQLLVNAATNLADGVPSRFSGSGSGTQFSLKINSLQPEDFGSYYCQHFYVTPYTFGSGTKLEIKR

Legend:
[1] = target: MARV GP[change] (Marburg virus, UniProt P35253)
[2] = target: T1, EBOV GP[change] (Ebola virus, UniProt Q05320)
[3] = target: T1, EBOV GP[change]; remark: listed apart in the source

Binder	Kd [1] [nM]	Kd [2] [nM]	EC50 [3] [µg/mL]
B1	30	12	
B2			1.27
